From patent publication US20110008345A1 (GlaxoSmithKline, published 2011)
Numbering of substitutions follows the chain as printed. Where two headings read alike, the source gives them in different places. One block for each binder: values may come before it.

How the values were obtained:
[1] = molecular target: T1, recombinant E. coli-expressed human IL-13 (human, UniProt P35225 35-146); experiment: SPR
T1 construct: made and purified at GSK; also called Interleukin-13; rhIL-13

[2] = molecular target: T2, recombinant E. coli-expressed human IL-4 (human, UniProt P05112 25-153); experiment: SPR
T2 construct: made and purified at GSK; also called Interleukin-4; rhIL-4
T2 sequence: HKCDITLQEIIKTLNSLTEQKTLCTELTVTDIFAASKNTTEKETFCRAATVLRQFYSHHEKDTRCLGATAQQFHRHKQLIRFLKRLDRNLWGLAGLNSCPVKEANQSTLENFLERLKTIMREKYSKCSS

[3] = molecular target: T2, recombinant E. coli-expressed human IL-4; experiment: SPR, positive dissociation
[4] = molecular target: T1, recombinant E. coli-expressed human …; experiment: SPR, purified
[5] = molecular target: T2, recombinant E. coli-expressed human IL-4; experiment: SPR, purified
[6] = molecular target: T3, recombinant E. coli-expressed cynomolgus IL-13 (cynomolgus, UniProt Q0PW92 21-132); experiment: SPR
T3 construct: also called cyno IL-13

[7] = molecular target: T1, recombinant E. coli-expressed human …; experiment: SPR exp 1
[8] = molecular target: T2, recombinant E. coli-expressed human IL-4; experiment: SPR exp 1
[9] = molecular target: T1, recombinant E. coli-expressed human …; experiment: SPR exp 2
[10] = molecular target: T2, recombinant E. coli-expressed human IL-4; experiment: SPR exp 2
[11] = molecular target: T1, recombinant E. coli-expressed human …; experiment: cell-based or functional assay
[12] = molecular target: T3, recombinant E. coli-expressed …; experiment: cell-based or functional assay
[13] = molecular target: T1, recombinant E. coli-expressed human …; experiment: ELISA, IL-13 binding to IL13Ralpha2/Fc
HEL (Hen Egg Lysozyme) = molecular target: T4, HEL (Hen Egg Lysozyme) (hen, UniProt P00698 19-147); experiment: ELISA
T4 construct: also called hen egg white lysozyme
T4 sequence (P00698 19-147): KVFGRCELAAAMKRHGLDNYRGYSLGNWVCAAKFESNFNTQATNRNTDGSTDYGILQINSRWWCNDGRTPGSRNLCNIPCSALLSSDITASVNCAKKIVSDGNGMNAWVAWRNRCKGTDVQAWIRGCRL

[14] = molecular target: T2, recombinant E. coli-expressed human IL-4; experiment: ELISA
[15] = molecular target: T1, recombinant E. coli-expressed human …; experiment: SPR; remark: listed apart in the source
[16] = molecular target: T3, recombinant E. coli-expressed …; experiment: SPR; remark: listed apart in the source
[17] = molecular target: T5, recombinant E. coli-expressed cynomolgus IL-4 (cynomolgus, UniProt P79339 25-153); experiment: SPR
T5 construct: also called cyno IL-4
T5 sequence (looked up): T2 sequence with E26K, V29I, F33L

[18] = molecular target: T1, recombinant E. coli-expressed human …; experiment: SPR exp 1; remark: listed apart in the source
[19] = molecular target: T1, recombinant E. coli-expressed human …; experiment: SPR exp 2; remark: listed apart in the source
[20] = molecular target: T2, recombinant E. coli-expressed human IL-4; experiment: SPR exp 2; remark: listed apart in the source
[21] = molecular target: T1, recombinant E. coli-expressed human …; experiment: SPR, no IL-4 bound
[22] = molecular target: T1, recombinant E. coli-expressed human …; experiment: cell-based or functional assay; remark: listed apart in the source
[23] = molecular target: T2, recombinant E. coli-expressed human IL-4; experiment: cell-based or functional assay
[24] = molecular target: T3, recombinant E. coli-expressed …; experiment: cell-based or functional assay; remark: listed apart in the source
[25] = molecular target: T5, recombinant E. coli-expressed …; experiment: cell-based or functional assay
[26] = molecular target: T1, recombinant E. coli-expressed human …; experiment: cell-based or functional assay; remark: listed apart in the source
[27] = molecular target: T2, recombinant E. coli-expressed human IL-4; experiment: cell-based or functional assay; remark: listed apart in the source
[28] = molecular target: T1, recombinant E. coli-expressed human …; experiment: SPR, human IL-4 bound first
[29] = molecular target: T2, recombinant E. coli-expressed human IL-4; experiment: ELISA, IL-4 binding to IL4Ralpha-Fc
[30] = molecular target: recombinant human TNF-alpha (human, UniProt P01375 77-233); experiment: ELISA, supernatant
[31] = molecular target: T2, recombinant E. coli-expressed human IL-4; experiment: ELISA, supernatant
RNAse A = molecular target: T6, RNAse A (UniProt P61823 27-150); experiment: ELISA
T6 sequence (looked up): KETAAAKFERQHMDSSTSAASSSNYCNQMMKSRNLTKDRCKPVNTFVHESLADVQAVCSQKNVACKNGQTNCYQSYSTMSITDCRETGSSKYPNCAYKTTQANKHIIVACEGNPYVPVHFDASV

[32] = molecular target: recombinant E. coli-expressed human IL-18 (human, UniProt Q14116 37-193); experiment: SPR
[33] = molecular target: T1, recombinant E. coli-expressed human …; experiment: ELISA
[34] = molecular target: recombinant Sf21-expressed human IL-5 (human, UniProt P05113 20-134); experiment: SPR

B1: 586H-TVAAPS-147 (bispecific antibody, human IgG1, kappa)
heavy: not shown
light: DIVMTQSPLSLPVTPGEPASISCRSSQNIVHINGNTYLEWYLQKPGQSPRLLIYKISDRFSGVPDRFSGSGSGTDFTLKISRVEADDVGIYYCFQGSHVPWTFGQGTKLEIKRTVAAPSVFIFPPSDEQLKSGTASVVCLLNNFYPREAKVQWKVDNALQSGNSQESVTEQDSKDSTYSLSSTLTLSKADYEKHKVYACEVTHQGLSSPVTKSFNRGEC
Kd [1]: 0.56 nM | koff [2]: 6.69e-07 s⁻¹ | kon [2]: 66200 M⁻¹ s⁻¹ | Kd [3]: 0.011 nM

B2: 586H-TVAAPS-154 (bispecific antibody, human IgG1, kappa)
heavy: not shown
light: B1 light
Kd [1]: 0.56 nM | koff [2]: 1.15e-07 s⁻¹ | kon [2]: 64400 M⁻¹ s⁻¹ | Kd [4]: 0.41 nM | Kd [5]: 0.49 nM | Kd [3]: 0.002 nM

B3: PascoH-TVAAPS-616 (bispecific antibody, human IgG1, kappa)
heavy: not shown
light: DIVLTQSPSSLSASVGDRVTITCKASQSVDYDGDSYMNWYQQKPGKAPKLLIYAASNLESGIPSRFSGSGSGTDFTFTISSLQPEDIATYYCQQSNEDPPTFGQGTKVEIKRTVAAPSVFIFPPSDEQLKSGTASVVCLLNNFYPREAKVQWKVDNALQSGNSQESVTEQDSKDSTYSLSSTLTLSKADYEKHKVYACEVTHQGLSSPVTKSFNRGEC
Kd [6]: 9.8 nM | koff [6]: 0.00451 s⁻¹ | kon [6]: 460000 M⁻¹ s⁻¹ | Kd [7]: 0.0497 nM | Kd [8]: 0.003 nM | Kd [9]: 0.056 nM | Kd [10]: 0.005 nM | Mean ND50 (TF-1) [11]: 0.722 nM | Mean ND50 (TF-1) [12]: 14.5 nM | IC50 [13]: 6.17 nM

B4: BPC1816 (bispecific antibody, human IgG1, kappa)
heavy: not shown
light: B3 light
notes: also called Anti IL-4 heavy Chain-GS-NARV
binding result (HEL (Hen Egg Lysozyme)): binds | binding result [14]: binds

B5: PascoH-474 GS removed (bispecific antibody, human IgG1, kappa)
heavy: not shown
light: B3 light
Kd [15]: 0.423 nM | koff [15]: 0.000266 s⁻¹ | kon [15]: 629000 M⁻¹ s⁻¹ | Kd [16]: 16.6 nM | koff [16]: 0.011 s⁻¹ | kon [16]: 662000 M⁻¹ s⁻¹ | Kd [17]: 0.0342 nM | koff [17]: 6.38e-05 s⁻¹ | kon [17]: 1.87e+06 M⁻¹ s⁻¹ | Kd [18]: 0.331 nM | Kd [19]: 0.351 nM | Kd [20]: 0.005 nM | Kd [21]: 0.425 nM | koff [21]: 0.000259 s⁻¹ | kon [21]: 609000 M⁻¹ s⁻¹ | Mean ND50 (TF-1) [22]: 2.27 nM | Mean ND50 (TF-1) [23]: 2.85 nM | Mean ND50 (TF-1) [24]: 39.8 nM | Mean ND50 (TF-1) [25]: 1.89 nM | Mean IC50 (whole blood phospho-STAT6) [26]: 2.78 nM | Mean IC50 (whole blood phospho-STAT6) [27]: 7.95 nM | Kd [28]: 0.408 nM | koff [28]: 0.000231 s⁻¹ | kon [28]: 566000 M⁻¹ s⁻¹ | IC50 [29]: 5.14 nM | IC50 [13]: 9.58 nM

B9: PascoH-616 (bispecific antibody, human IgG1, kappa)
heavy: not shown
light: B3 light
Kd [6]: 5.4 nM | koff [6]: 0.00184 s⁻¹ | kon [6]: 341000 M⁻¹ s⁻¹ | Kd [7]: 0.114 nM | Kd [8]: 0.00172 nM | Kd [9]: 0.15 nM | Mean ND50 (TF-1) [11]: 0.796 nM | Mean ND50 (TF-1) [12]: 9.23 nM | IC50 [13]: 6.41 nM

B10: Anti-human IL-18 (humanised) monoclonal antibody (antibody, human IgG1, kappa, V domains shown)
VH: QVQLVQSGAEVKKPGASVKVSCKVSGEISTGYYFHWVRQAPGKGLEWMGRIDPEDDSTKYAERFKDRVTMTEDTSTDTAYMELSSLRSEDTAVYYCTTWRIYRDSSGRPFYVMDAWGQGTLVTVSS
VL: DIQMTQSPSSVSASVGDRVTITCLASEDIYTYLTWYQQKPGKAPKLLIYGANKLQDGVPSRFSGSGSGTDYTLTISSLQPEDFATYYCLQGSKFPLTFGQGTKLEIKR
notes: also called Anti-human IL-18 mAb
Kd [32]: 0.035 nM

Results, then the binder that gave them:

binding result [30]: binds | binding result [31]: binds
B6: BPC1823 (bispecific antibody, human IgG1, kappa)
heavy: not shown
light: B3 light
notes: also called Anti IL-4 Heavy Chain-GS-anti TNF-a adnectin

binding result (RNAse A): binds | binding result [14]: binds
B7: BPC1809 (bispecific antibody, human IgG1, kappa)
heavy: not shown
light: B3 light
notes: also called Anti IL-4 heavy Chain-GS-anti RNAse A camelidVHH

binding result [30]: binds | binding result [31]: binds
B8: BPC1822 (bispecific antibody, human IgG1, kappa)
heavy: not shown
light: B3 light

binding result [33]: binds | binding result [14]: binds
B11: PascoL-ELQLE-474 (bispecific antibody, human IgG1, kappa)
heavy: not shown
light: DIVLTQSPSSLSASVGDRVTITCKASQSVDYDGDSYMNWYQQKPGKAPKLLIYAASNLESGIPSRFSGSGSGTDFTFTISSLQPEDIATYYCQQSNEDPPTFGQGTKVEIKRTVAAPSVFIFPPSDEQLKSGTASVVCLLNNFYPREAKVQWKVDNALQSGNSQESVTEQDSKDSTYSLSSTLTLSKADYEKHKVYACEVTHQGLSSPVTKSFNRGECELQLEESCAEAQDGELDGGSGVQLLESGGGLVQPGGSLRLSCAASGFTFAWYDMGWVRQAPGKGLEWVSSIDWHGEVTYYADSVKGRFTISRDNSKNTLYLQMNSLRAEDTAVYYCATAEDEPGYDYWGQGTLVTVSS

binding result [33]: no binding | binding result [14]: no binding | Kd [34]: 0.34 nM
B12: Mepolizumab (Anti-human IL-5 monoclonal antibody) (antibody, human IgG1, kappa, V domains shown)
VH: QVTLRESGPALVKPTQTLTLTCTVSGFSLTSYSVHWVRQPPGKGLEWLGVIWASGGTDYNSALMSRLSISKDTSRNQVVLTMTNMDPVDTATYYCARDPPSSLLRLDYWGRGTLVTVSS
VL: DIVMTQSPDSLAVSLGERATINCKSSQSLLNSGNQKNYLAWYQQKPGQPPKLLIYGASTRESGVPDRFSGSGSGTDFTLTISSLQAEDVAVYYCQNVHSFPFTFGGGTKLEIKR
notes: also called IL-5 mAb; anti-human IL5 mAb
